B1: Cp149d (HBV capsid protein residues 1-149, C48A, C107A, G123A; dimer) (domain or fragment)
chain: MDIDPYKEFGATVELLSFLPSDFFPSVRDLLDTAAALYRDALESPEHASPHHTALRQAILCWGDLMTLATWVGTNLEDPASRDLVVSYVNTNVGLKFRQLLWFHISALTFGRETVLEYLVSFAVWIRTPPAYRPPNAPILSTLPETTVV

How the values were obtained:
[1] = target: Cp(-10)149d (recombinant HBV e-antigen, residues (-10)-149, C48A, C107A, G123A; dimer) (Hepatitis B virus) (UniProt P03147); assay: AUC
AUC = target: the molecule itself; assay: AUC

| Molecule | stoichiometry N [1] | stoichiometry N (AUC) |
| --- | --- | --- |
| Cp(-10)149d (recombinant HBV e-antigen, residues (-10)-149, C48A, C107A, G123A; dimer) (from UniProt P03147 1-149) (natural protein) | 2 | – |
| B1 | – | 2 |
